Changes are numbered by the printed parent chain.
Columns and labels:
Experiment in all cases: EMSA; 400 nM protein; 50 ng/ul Poly (competitor (so in the source)), 0.05% NP-40, 50 mM KCl, 5 mM MgCl2, 10 mM EDTA, 20 ul, 0.4 ng (16 fmol) probe; 30 min at room temperature (Methods) or 30 C; pH not stated; synapsis 2 h at 30 C
Settings in all cases: protein: recombinant; tags: C-terminal His; chain copies: 2; label: biotin, double-strand end-labeled; blunt
phiC31 integrase V571A = target: T1, phiC31 integrase V571A (Streptomyces phage phiC31, UniProt Q38194 1-613, V571A)
T1 sequence: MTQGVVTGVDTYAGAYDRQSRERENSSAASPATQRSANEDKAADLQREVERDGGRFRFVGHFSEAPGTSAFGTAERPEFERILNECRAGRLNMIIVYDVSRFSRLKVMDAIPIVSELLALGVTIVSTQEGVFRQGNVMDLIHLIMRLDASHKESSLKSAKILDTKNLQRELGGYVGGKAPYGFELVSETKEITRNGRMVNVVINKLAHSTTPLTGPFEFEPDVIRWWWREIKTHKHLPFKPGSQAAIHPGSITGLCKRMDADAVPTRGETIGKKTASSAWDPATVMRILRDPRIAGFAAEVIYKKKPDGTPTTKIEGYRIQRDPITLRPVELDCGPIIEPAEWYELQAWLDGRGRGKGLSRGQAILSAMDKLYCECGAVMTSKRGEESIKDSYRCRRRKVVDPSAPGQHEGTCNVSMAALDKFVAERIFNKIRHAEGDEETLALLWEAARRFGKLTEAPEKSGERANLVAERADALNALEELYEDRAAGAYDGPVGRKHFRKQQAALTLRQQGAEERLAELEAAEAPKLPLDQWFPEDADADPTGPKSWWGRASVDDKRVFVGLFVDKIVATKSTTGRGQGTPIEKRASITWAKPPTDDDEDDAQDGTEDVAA

phiC31 integrase Y393A = target: T2, phiC31 integrase Y393A (Streptomyces phage phiC31, UniProt Q38194 1-613, Y393A)
T2 sequence: T1 sequence with Y393A, A571V

phiC31 integrase C374A = target: T3, phiC31 integrase C374A (Streptomyces phage phiC31, UniProt Q38194 1-613, C374A)
T3 sequence: T1 sequence with C374A, A571V

B1: attB 41 bp (dsDNA)
DNA 1: CGGGTGCCAGGGCGTGCCCTTGGGCTCCCCGGGCGCGTACT
DNA 2: AGTACGCGCCCGGGGAGCCCAAGGGCACGCCCTGGCACCCG
- binding signal (phiC31 integrase V571A): 15.6 ± 1.7 % of WT
- binding signal (phiC31 integrase Y393A): 0 % of WT
- binding signal (phiC31 integrase C374A): 0 % of WT

Reference: paper PMC2810336, “Mutational Analysis of Highly Conserved Residues in the Phage PhiC31 Integrase Reveals Key Amino Acids Necessary for the DNA Recombination”
